Assay results published in article PMC9582721, “Hepatitis C virus nonstructural protein NS3 unfolds viral G-quadruplex RNA structures”.

Assays:
[1] = target: T1, NS3 (nonstructural protein 3, protease-helicase) (Hepatitis C virus genotype 1b (con1b), UniProt Q9WMX2 1027-1657); assay: fluorescence anisotropy; 100 mM KCl; quadratic fit; 25 mM MOPS pH 6.5, 100 mM KCl, 0.1 mM EDTA, 2 mM beta-mercaptoethanol, 0.1 mg/ml BSA, 37 C, 30 min; RNA 2 nM unless stated, folded in 100 mM KCl; conditions: protein: recombinant; label: 3'-6FAM; single-stranded
[2] = target: T1, NS3 (nonstructural protein 3, …); assay: fluorescence anisotropy; 100 mM KCl; same data, two-sites fit, Kd1; 25 mM MOPS pH 6.5, 100 mM KCl, 0.1 mM EDTA, 2 mM beta-mercaptoethanol, 0.1 mg/ml BSA, 37 C, 30 min; RNA 2 nM unless stated, folded in 100 mM KCl; conditions: protein: recombinant; label: 3'-6FAM; single-stranded
[3] = target: T1, NS3 (nonstructural protein 3, …); assay: fluorescence anisotropy; 100 mM KCl; 25 mM MOPS pH 6.5, 100 mM KCl, 0.1 mM EDTA, 2 mM beta-mercaptoethanol, 0.1 mg/ml BSA, 37 C, 30 min; RNA 2 nM unless stated, folded in 100 mM KCl; conditions: protein: recombinant, label: 3'-6FAM
[4] = target: T1, NS3 (nonstructural protein 3, …); assay: fluorescence anisotropy; 100 mM KCl; 6 nM RNA; 25 mM MOPS pH 6.5, 100 mM KCl, 0.1 mM EDTA, 2 mM beta-mercaptoethanol, 0.1 mg/ml BSA, 37 C, 30 min; RNA 2 nM unless stated, folded in 100 mM KCl; conditions: protein: recombinant; label: 3'-6FAM; parallel G4 with 3' overhang 20 nt
[5] = target: T1, NS3 (nonstructural protein 3, …); assay: fluorescence anisotropy; 100 mM KCl; 5.4 nM RNA; 25 mM MOPS pH 6.5, 100 mM KCl, 0.1 mM EDTA, 2 mM beta-mercaptoethanol, 0.1 mg/ml BSA, 37 C, 30 min; RNA 2 nM unless stated, folded in 100 mM KCl; conditions: protein: recombinant; label: 3'-6FAM; parallel G4 with 3' overhang 20 nt

T1 sequence (Q9WMX2 1027-1657): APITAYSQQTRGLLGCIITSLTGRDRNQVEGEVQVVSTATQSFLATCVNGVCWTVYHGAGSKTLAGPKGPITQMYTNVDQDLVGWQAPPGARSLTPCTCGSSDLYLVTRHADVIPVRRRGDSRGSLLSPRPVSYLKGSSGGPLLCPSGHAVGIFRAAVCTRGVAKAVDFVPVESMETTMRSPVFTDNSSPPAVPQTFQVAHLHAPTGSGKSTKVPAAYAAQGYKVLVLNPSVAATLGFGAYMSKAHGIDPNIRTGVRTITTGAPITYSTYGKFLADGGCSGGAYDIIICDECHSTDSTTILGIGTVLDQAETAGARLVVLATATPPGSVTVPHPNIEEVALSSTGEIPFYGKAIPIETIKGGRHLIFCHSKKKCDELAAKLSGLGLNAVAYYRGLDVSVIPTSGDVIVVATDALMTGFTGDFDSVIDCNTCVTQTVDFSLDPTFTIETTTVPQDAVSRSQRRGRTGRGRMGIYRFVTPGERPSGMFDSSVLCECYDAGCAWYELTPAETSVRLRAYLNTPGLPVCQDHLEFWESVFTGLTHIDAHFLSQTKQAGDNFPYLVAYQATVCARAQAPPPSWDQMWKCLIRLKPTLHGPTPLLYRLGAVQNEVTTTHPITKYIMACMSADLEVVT

B1: A20 (ssRNA)
RNA: AAAAAAAAAAAAAAAAAAAA
Kd [1]: 6 ± 1 nM | Kd [2]: 4.9 nM

B2: HCVG4 (structured_RNA)
RNA: AAGGGCUGCGGGUGGGCAGGGAA
Kd ([3]; parallel G4 (three-tetrad)): 17 ± 4 nM

B3: NEGG4 (structured_RNA)
RNA: AAGGGAGGGGGGGUCCUGGAGGAA
Kd ([3]; parallel G4 (two-tetrad)): 19 ± 5 nM

B4: NONHCVG4 (structured_RNA)
RNA: AAGGGUGGGUGGGUGGGAA
Kd ([3]; parallel G4 (three-tetrad)): 23 ± 7 nM

B5: HCVG4-A20 (structured_RNA)
RNA: AAGGGCUGCGGGUGGGCAGGGAAAAAAAAAAAAAAAAAAAA
Kd [4]: 11 ± 3 nM

B6: NEGG4-A20 (structured_RNA)
RNA: AAGGGAGGGGGGGUCCUGGAGGAAAAAAAAAAAAAAAAAAAA
Kd [5]: 6 ± 2 nM

B7: NONHCVG4-A20 (structured_RNA)
RNA: AAGGGUGGGUGGGUGGGAAAAAAAAAAAAAAAAAAAA
Kd [4]: 12 ± 3 nM
